Data taken from patent US11814447B2, “Peptide ligands for binding to EphA2” (BICYCLERD LIMITED, priority 2018, dated 2023).
Starred links: 1 amine or outer side, 2 acyl side, 3 side chain; linkers in the order of their positions; H or OH if unused. Positions of bridges follow the written chain, without caps; N, C: chain ends. Non-standard residues stand in square brackets, D forms with d. Primed or numbered codes have the meaning given here. No end group written: not given here. TBMB′ = 1,3,5-tris(bromomethyl)benzene, 1,3,5-tris(methylene)benzene core, three thioethers to Cys; TATA = O=C(CC[*:1])N1CN(C(=O)CC[*:2])CN(C(=O)CC[*:3])C1; Bip = N[C@@H](Cc1ccc(-c2ccccc2)cc1)C(=O)O; Phe(4-Br) = N[C@@H](Cc1ccc(Br)cc1)C(=O)O; 2Nal = N[C@@H](Cc1ccc2ccccc2c1)C(=O)O; TBMB = c1c(C[*:1])cc(C[*:3])cc1C[*:2]; Pip = O=C(O)[C@@H]1CCCCN1; Aib = CC(C)(N)C(=O)O; Sar = CNCC(=O)O

B1: Bicycle Compound Number 62 (TATA scaffold), ACPLVNPLCMMGGWKCA (peptide)
peptide: ACPLVNPLCMMGGWKCA
modifications: linker 2-9-16 via TATA (inferred)
B2: Bicycle Compound Number 63 (TATA scaffold), ACPLVNPLCLYGSWKCA (peptide)
peptide: ACPLVNPLCLYGSWKCA
modifications: linker 2-9-16 via TATA (inferred)
B3: Bicycle Compound Number 69 (TATA scaffold), Ac-A(HArg)DCPLVNPLCLHPGWTCA-Sar6-(D-K) (peptide)
peptide: AXDCPLVNPLCLHPGWTCAXXXXXXK
modifications: N-terminal acetyl; X2 = HArg (homoarginine); X at 20-25 = Sar; K26 = D-Lys; 3 Cys thioether-linked to TATA scaffold
B4: Bicycle Compound Number 70 (TATA scaffold), RPACPLVNPLCLHPGWTCA (peptide)
peptide: RPACPLVNPLCLHPGWTCA
modifications: linker 4-11-18 via TATA
B5: Bicycle Compound Number 71 (TATA scaffold), RPPCPLVNPLCLHPGWTCA (peptide)
peptide: RPPCPLVNPLCLHPGWTCA
modifications: linker 4-11-18 via TATA
B6: Bicycle Compound Number 74 (TATA scaffold), Ac-CPLVNPLCLHPGWTCLHG (peptide)
peptide: Ac-CPLVNPLCLHPGWTCLHG
modifications: linker 1-8-15 via TATA
B7: Bicycle Compound Number 75 (TATA scaffold), (β-Ala)-Sar10-ACPLVNPLCLHPGWTCLHG (peptide)
peptide: XXXXXXXXXXXACPLVNPLCLHPGWTCLHG
modifications: N-terminal (β-Ala)-Sar10; 3 Cys thioether-linked to TATA scaffold
B8: Bicycle Compound Number 79 (TATA scaffold), ACPLVNPLCLHPG(2Nal)TCLHG (peptide)
peptide: ACPLVNPLCLHPG[2Nal]TCLHG
modifications: linker 2-9-16 via TATA
B9: Bicycle Compound Number 81 (TATA scaffold), TPRCPLVNPLCLMPGWTCA (peptide)
peptide: TPRCPLVNPLCLMPGWTCA
modifications: linker 4-11-18 via TATA
B10: Bicycle Compound Number 85 (TATA scaffold), ACPLVNPLCLEPGWTCAKR (peptide)
peptide: ACPLVNPLCLEPGWTCAKR
modifications: linker 2-9-16 via TATA
B11: Bicycle Compound Number 88 (TATA scaffold), Ac-CPLVNPLCLHPGWSCRGQ (peptide)
peptide: Ac-CPLVNPLCLHPGWSCRGQ
modifications: linker 1-8-15 via TATA
B12: Bicycle Compound Number 93 (TATA scaffold), ACPLVNPLCLHPG(2Nal)SCRGQ (peptide)
peptide: ACPLVNPLCLHPG[2Nal]SCRGQ
modifications: linker 2-9-16 via TATA
B13: Bicycle Compound Number 94 (TATA scaffold), ACPLVNPLCLTPGWTCTNT (peptide)
peptide: ACPLVNPLCLTPGWTCTNT
modifications: linker 2-9-16 via TATA
B14: Bicycle Compound Number 46 (TBMB scaffold) (peptide)
peptide: ACPWGPMWCPVNRPGCA
modifications: linker 2-9-16 via TBMB (inferred)
notes: also called Compound 46
B15: Bicycle Compound Number 74 (TBMB scaffold) (peptide)
peptide: [Sar][Sar]AC[Aib]WGPFWCPVNRPGC
modifications: linker 4-11-18 via TBMB
notes: also called Compound 74
B16: Bicycle Compound Number 77 (TBMB scaffold) (peptide)
peptide: [Sar][Sar]ACP[2Nal]GPFWCPVNRPGC
modifications: linker 4-11-18 via TBMB
notes: also called Compound 77
B17: Bicycle Compound Number 82 (TBMB scaffold) (peptide)
peptide: [Sar][Sar]ACPWG[Pip]FWCPVNRPGC
modifications: linker 4-11-18 via TBMB′
notes: also called Compound 82
B18: Bicycle Compound Number 91 (TBMB scaffold) (peptide)
peptide: [Sar][Sar]ACPWGPYWCPVNRPGC
modifications: linker 4-11-18 via TBMB′
notes: also called Compound 91
B19: Bicycle Compound Number 101 (TBMB scaffold) (peptide)
peptide: [Sar][Sar]ACPWGPFWCPVARPGC
modifications: linker 4-11-18 via TBMB
B20: Bicycle Compound Number 105 (TBMB scaffold) (peptide)
peptide: [Sar][Sar]ACPWGPFWCPVNR[dA]GC
modifications: linker 4-11-18 via TBMB
B21: Bicycle Compound Number 85 (TBMB scaffold) (peptide)
peptide: [Sar][Sar]ACPWGP[Phe(4-Br)]WCPVNRPGC
modifications: linker 4-11-18 via TBMB′
notes: also called Compound 85
B22: Bicycle Compound Number 88 (TBMB scaffold) (peptide)
peptide: [Sar][Sar]ACPWGP[Bip]WCPVNRPGC
modifications: linker 4-11-18 via TBMB′
notes: also called Compound 88

molecular target: T1, Human EphA2 (Ecto) (Human, UniProt P29317 24-537); assay: FP competition; tracer Reference Compound C
T1 construct: extracellular domain; in-house)
T1 sequence (P29317 24-537): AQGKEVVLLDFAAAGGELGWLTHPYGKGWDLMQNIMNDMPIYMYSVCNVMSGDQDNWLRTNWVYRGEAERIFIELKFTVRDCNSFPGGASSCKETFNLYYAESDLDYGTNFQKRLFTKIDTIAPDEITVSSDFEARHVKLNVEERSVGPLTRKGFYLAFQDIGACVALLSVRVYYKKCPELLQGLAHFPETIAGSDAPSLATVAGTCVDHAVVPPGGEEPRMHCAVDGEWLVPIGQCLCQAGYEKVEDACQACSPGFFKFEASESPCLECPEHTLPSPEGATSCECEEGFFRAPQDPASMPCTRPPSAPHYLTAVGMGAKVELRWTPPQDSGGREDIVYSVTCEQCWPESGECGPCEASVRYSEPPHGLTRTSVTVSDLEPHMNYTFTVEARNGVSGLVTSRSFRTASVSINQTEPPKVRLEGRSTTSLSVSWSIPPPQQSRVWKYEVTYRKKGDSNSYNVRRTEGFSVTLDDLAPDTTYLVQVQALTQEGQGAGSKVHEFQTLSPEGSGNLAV
Protocol: (§1) Peptides without a fluorescent tag were tested in competition with a peptide with a fluorescent tag and a known Kd (Table 2). Peptides were diluted to an appropriate concentration in assay buffer as described in the direct binding assay with a maximum of 5% DMSO, then serially diluted 1 in 2. […] Measurements were conducted as for the direct binding assay, however the gain was determined prior to the first measurement. Data analysis was in Systat Sigmaplot version 12.0 where the mP values were fit to a user defined cubic equation to generate a Ki value: […]

Ki [nM]	Binder
67.1	B1
59	B2
17.5	B3
10.1	B4
11.1	B5
1.76	B6
2.48	B7
162	B8
9.8	B9
10.9	B10
1.64	B11
228	B12
13.2	B13

molecular target: T2, Human EphA2 (Ecto), C-terminal polyHis (Human, UniProt P29317 24-537); assay: fluorescence polarisation competition; competitor fluorescent Compound 66
T2 construct: extracellular domain; also called EPH receptor A2; ephrin type-A receptor 2
T2 sequence (P29317 24-537): as above
Protocol: as §1

Ki [nM]	Binder
95.8	B14
139	B15
458	B16
497	B17
138	B18
265	B19
471	B20
174	B21
183	B22
